# Literature values in patent US20220062372A1, “METHODS FOR TREATING DISEASE AND REDUCING DRUG-INDUCED LIVER INJURY IN PATIENT POPULATIONS” (Ten Peaks LLC, priority 2020, published 2022).
# B1: KEVZARA: IL-6 receptor antagonist (antibody, chains of the INN, looked up, V domains shown)
# VH: EVQLVESGGGLVQPGRSLRLSCAASRFTFDDYAMHWVRQAPGKGLEWVSGISWNSGRIGYADSVKGRFTISRDNAENSLFLQMNGLRAEDTALYYCAKGRDSFDIWGQGTMVTVSS
# VL: DIQMTQSPSSVSASVGDRVTITCRASQGISSWLAWYQQKPGKAPKLLIYGASSLESGVPSRFSGSGSGTDFTLTISSLQPEDFASYYCQQANSFPYTFGQGTKLEIK
# Details: background description of the marketed drug
molecule,measurement,value
B1,hepatic adverse reactions reported in patients,associated with a higher incidence of transaminase elevations
